This assay addresses T1, Drosophila GOLPH3, GST removed (ligand of the SPR experiment) (Drosophila melanogaster, UniProt Q9VQ93 1-294).
T1 construct: Drosophila melanogaster GOLPH3 (CG7085, sauron), polypeptide of 293 amino acids, full-length cDNA in pGEX-6p-2; A few vector residues probably remain at the N-terminus after PreScission cleavage; also called dGOLPH3; source: E. coli BL21-CodonPlus [DE3], purified as GST fusion, GST cleaved off with PreScission Protease; not shown: GST, N-terminal, cleaved
The experiment in a line: SPR; BIACORE X, GOLPH3 immobilised on CM5 chip by amine coupling (about 1200 RU); Rab11 analyte 50 nM to 10.0 µM in 10 mM Hepes pH 7.4, 150 mM NaCl, 0.005% surfactant P20, 30 µl/min. As to conditions: both partners purified. Background: SPR reads the build-up and loss of mass on a sensor chip optically.

Values joined by “and” are separate entries in the source; they are usually repeats but may differ in a detail not shown here. Identical values can stand only once.

T1 sequence (Q9VQ93 whole entry, the tested form may be a part): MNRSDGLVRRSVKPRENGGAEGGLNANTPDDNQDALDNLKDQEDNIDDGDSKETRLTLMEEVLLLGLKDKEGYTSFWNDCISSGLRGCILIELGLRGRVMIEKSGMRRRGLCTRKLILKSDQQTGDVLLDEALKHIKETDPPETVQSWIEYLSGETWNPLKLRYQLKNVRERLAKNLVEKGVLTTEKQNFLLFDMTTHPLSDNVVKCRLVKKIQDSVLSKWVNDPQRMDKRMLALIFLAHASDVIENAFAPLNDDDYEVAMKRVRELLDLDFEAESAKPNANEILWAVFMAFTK

B1: Drosophila Rab11, GST removed (analyte of the SPR experiment) (natural protein, UniProt O18335 1-214, looked up)
chain: MGAREDEYDYLFKVVLIGDSGVGKSNLLSRFTRNEFNLESKSTIGVEFATRSIEVDGKTIKAQIWDTAGQERYRAITSAYYRGAVGALLVYDIAKHLTYENVERWLRELRDHADQNIVIMLVGNKSDLRHLRSVPTDEAKLFAERNGLSFIETSALDSTNVETAFQNILTEIYRIVSQKQIRDPPEGDVIRPSNVEPIDVKPTVTADVRKQCCQ
notes: Drosophila Rab11, full-length, made as GST fusion; source: E. coli BL21-CodonPlus [DE3], purified as GST fusion, GST cleaved off with PreScission Protease
In the case of B1, binding was characterised by a dissociation constant (Kd) of 180 nM; the koff is ~0.0002 s⁻¹ and ~0.0001 s⁻¹.

The Kd is the constant that tells how readily two partners part at equilibrium. A word on the koff: it is a measure of how fast the partners let go of each other. Higher therefore signals a short-lived complex.

For the origin of these results see PMC4006750, “GOLPH3 Is Essential for Contractile Ring Formation and Rab11 Localization to the Cleavage Site during Cytokinesis in Drosophila melanogaster” (PLoS Genetics, 2014).
